Assay results reported in patent publication US20130143798A1 (Novo Nordisk, published 2013).
Numbered stars: 1 amine (or outer) side, 2 acyl side, 3 side chain; on linkers, the order of the positions; unused ones are H or OH. Square brackets hold non-standard residues; d marks the D form. Side chains are listed from the residue outwards. Ends that are not written are not given here. * marks the point of attachment. C18 diacid = O=C(O)CCCCCCCCCCCCCCCCC(=O)*; pY = N[C@@H](Cc1ccc(OP(=O)(O)O)cc1)C(=O)O; γGlu = O=C(O)[C@H](CCC(=O)[*:2])N[*:1]; AEEA = NCCOCCOCC(=O)O

B1: N^ε25 … (peptide)
peptide: HSQGTFTSDYSKYLDSKRAQEFVQK([AEEA-AEEA-γGlu-C18 diacid])LLNT-NH2
modifications: N-terminus assumed
SMILES: CC(C)C[C@H](NC(=O)[C@H](Cc1ccc(O)cc1)NC(=O)[C@H](CCCCN)NC(=O)[C@H](CO)NC(=O)[C@H](Cc1ccc(O)cc1)NC(=O)[C@H](CC(=O)O)NC(=O)[C@H](CO)NC(=O)[C@@H](NC(=O)[C@H](Cc1ccccc1)NC(=O)[C@@H](NC(=O)CNC(=O)[C@H](CCC(N)=O)NC(=O)[C@H](CO)NC(=O)[C@@H](N)Cc1c[nH]cn1)[C@@H](C)O)[C@@H](C)O)C(=O)N[C@@H](CC(=O)O)C(=O)N[C@@H](CO)C(=O)N[C@@H](CCCCN)C(=O)N[C@@H](CCCNC(=N)N)C(=O)N[C@@H](C)C(=O)N[C@@H](CCC(N)=O)C(=O)N[C@@H](CCC(=O)O)C(=O)N[C@@H](Cc1ccccc1)C(=O)N[C@H](C(=O)N[C@@H](CCC(N)=O)C(=O)N[C@@H](CCCCNC(=O)COCCOCCNC(=O)COCCOCCNC(=O)CC[C@H](NC(=O)CCCCCCCCCCCCCCCCC(=O)O)C(=O)O)C(=O)N[C@@H](CC(C)C)C(=O)N[C@@H](CC(C)C)C(=O)N[C@@H](CC(N)=O)C(=O)N[C@H](C(N)=O)[C@@H](C)O)C(C)C
B2: N^ε24-([2-[2-[2-[[2-[2-[2-[[(4S)-5-hydroxy-4-[(18-hydroxy-18-oxooctadecanoyl)amino]-5-oxopentanoyl]amino]ethoxy]ethoxy]acetyl]amino]ethoxy]ethoxy]acetyl])[Lys^1 … (peptide)
peptide: HSQGTFTSDYSKYLDSKRAQEFVK([AEEA-AEEA-γGlu-C18 diacid])WLLET-NH2
modifications: N-terminus assumed
SMILES: CC(C)C[C@H](NC(=O)[C@H](Cc1ccc(O)cc1)NC(=O)[C@H](CCCCN)NC(=O)[C@H](CO)NC(=O)[C@H](Cc1ccc(O)cc1)NC(=O)[C@H](CC(=O)O)NC(=O)[C@H](CO)NC(=O)[C@@H](NC(=O)[C@H](Cc1ccccc1)NC(=O)[C@@H](NC(=O)CNC(=O)[C@H](CCC(N)=O)NC(=O)[C@H](CO)NC(=O)[C@@H](N)Cc1c[nH]cn1)[C@@H](C)O)[C@@H](C)O)C(=O)N[C@@H](CC(=O)O)C(=O)N[C@@H](CO)C(=O)N[C@@H](CCCCN)C(=O)N[C@@H](CCCNC(=N)N)C(=O)N[C@@H](C)C(=O)N[C@@H](CCC(N)=O)C(=O)N[C@@H](CCC(=O)O)C(=O)N[C@@H](Cc1ccccc1)C(=O)N[C@H](C(=O)N[C@@H](CCCCNC(=O)COCCOCCNC(=O)COCCOCCNC(=O)CC[C@H](NC(=O)CCCCCCCCCCCCCCCCC(=O)O)C(=O)O)C(=O)N[C@@H](Cc1c[nH]c2ccccc12)C(=O)N[C@@H](CC(C)C)C(=O)N[C@@H](CC(C)C)C(=O)N[C@@H](CCC(=O)O)C(=O)N[C@H](C(N)=O)[C@@H](C)O)C(C)C
B3: N^ε28 ([2-[2-[2-[[2-[2-[2-[[(4S)-5-hydroxy-4-[(18-hydroxy-18-oxooctadecanoyl)amino]-5-oxopentanoyl]amino]ethoxy]ethoxy]acetyl]amino]ethoxy]ethoxy]acetyl]) … (peptide)
peptide: HSQGTFTSDYSKYLDSKRAQEFVQWLLK([AEEA-AEEA-γGlu-C18 diacid])T-NH2
modifications: N-terminus assumed
SMILES: CC(C)C[C@H](NC(=O)[C@H](Cc1ccc(O)cc1)NC(=O)[C@H](CCCCN)NC(=O)[C@H](CO)NC(=O)[C@H](Cc1ccc(O)cc1)NC(=O)[C@H](CC(=O)O)NC(=O)[C@H](CO)NC(=O)[C@@H](NC(=O)[C@H](Cc1ccccc1)NC(=O)[C@@H](NC(=O)CNC(=O)[C@H](CCC(N)=O)NC(=O)[C@H](CO)NC(=O)[C@@H](N)Cc1c[nH]cn1)[C@@H](C)O)[C@@H](C)O)C(=O)N[C@@H](CC(=O)O)C(=O)N[C@@H](CO)C(=O)N[C@@H](CCCCN)C(=O)N[C@@H](CCCNC(=N)N)C(=O)N[C@@H](C)C(=O)N[C@@H](CCC(N)=O)C(=O)N[C@@H](CCC(=O)O)C(=O)N[C@@H](Cc1ccccc1)C(=O)N[C@H](C(=O)N[C@@H](CCC(N)=O)C(=O)N[C@@H](Cc1c[nH]c2ccccc12)C(=O)N[C@@H](CC(C)C)C(=O)N[C@@H](CC(C)C)C(=O)N[C@@H](CCCCNC(=O)COCCOCCNC(=O)COCCOCCNC(=O)CC[C@H](NC(=O)CCCCCCCCCCCCCCCCC(=O)O)C(=O)O)C(=O)N[C@H](C(N)=O)[C@@H](C)O)C(C)C
B4: N^α- ([Lys^17, Glu^21, Leu^27]Glucagonyl) … (peptide)
peptide: HSQGTFTSDYSKYLDSKRAQEFVQWLLNTK([AEEA-AEEA-γGlu-C18 diacid])-NH2
modifications: N-terminus assumed
SMILES: CC(C)C[C@H](NC(=O)[C@H](Cc1ccc(O)cc1)NC(=O)[C@H](CCCCN)NC(=O)[C@H](CO)NC(=O)[C@H](Cc1ccc(O)cc1)NC(=O)[C@H](CC(=O)O)NC(=O)[C@H](CO)NC(=O)[C@@H](NC(=O)[C@H](Cc1ccccc1)NC(=O)[C@@H](NC(=O)CNC(=O)[C@H](CCC(N)=O)NC(=O)[C@H](CO)NC(=O)[C@@H](N)Cc1c[nH]cn1)[C@@H](C)O)[C@@H](C)O)C(=O)N[C@@H](CC(=O)O)C(=O)N[C@@H](CO)C(=O)N[C@@H](CCCCN)C(=O)N[C@@H](CCCNC(=N)N)C(=O)N[C@@H](C)C(=O)N[C@@H](CCC(N)=O)C(=O)N[C@@H](CCC(=O)O)C(=O)N[C@@H](Cc1ccccc1)C(=O)N[C@H](C(=O)N[C@@H](CCC(N)=O)C(=O)N[C@@H](Cc1c[nH]c2ccccc12)C(=O)N[C@@H](CC(C)C)C(=O)N[C@@H](CC(C)C)C(=O)N[C@@H](CC(N)=O)C(=O)N[C@H](C(=O)N[C@@H](CCCCNC(=O)COCCOCCNC(=O)COCCOCCNC(=O)CC[C@H](NC(=O)CCCCCCCCCCCCCCCCC(=O)O)C(=O)O)C(N)=O)[C@@H](C)O)C(C)C
B5: N^ε24-([2-[2-[2-[[2-[2-[2-[[(4S)-5-hydroxy-4-[(18-hydroxy-18-oxooctadecanoyl)amino]-5-oxopentanoyl]amino]ethoxy]ethoxy]acetyl]amino]ethoxy]ethoxy]acetyl]) … (peptide)
peptide: HSQGTFTSDYSKYLDSKRAQEFVK([AEEA-AEEA-γGlu-C18 diacid])WLLST-NH2
modifications: N-terminus assumed
SMILES: CC(C)C[C@H](NC(=O)[C@H](Cc1ccc(O)cc1)NC(=O)[C@H](CCCCN)NC(=O)[C@H](CO)NC(=O)[C@H](Cc1ccc(O)cc1)NC(=O)[C@H](CC(=O)O)NC(=O)[C@H](CO)NC(=O)[C@@H](NC(=O)[C@H](Cc1ccccc1)NC(=O)[C@@H](NC(=O)CNC(=O)[C@H](CCC(N)=O)NC(=O)[C@H](CO)NC(=O)[C@@H](N)Cc1c[nH]cn1)[C@@H](C)O)[C@@H](C)O)C(=O)N[C@@H](CC(=O)O)C(=O)N[C@@H](CO)C(=O)N[C@@H](CCCCN)C(=O)N[C@@H](CCCNC(=N)N)C(=O)N[C@@H](C)C(=O)N[C@@H](CCC(N)=O)C(=O)N[C@@H](CCC(=O)O)C(=O)N[C@@H](Cc1ccccc1)C(=O)N[C@H](C(=O)N[C@@H](CCCCNC(=O)COCCOCCNC(=O)COCCOCCNC(=O)CC[C@H](NC(=O)CCCCCCCCCCCCCCCCC(=O)O)C(=O)O)C(=O)N[C@@H](Cc1c[nH]c2ccccc12)C(=O)N[C@@H](CC(C)C)C(=O)N[C@@H](CC(C)C)C(=O)N[C@@H](CO)C(=O)N[C@H](C(N)=O)[C@@H](C)O)C(C)C
B6: N^ε27 ([2-[2-[2-[[2-[2-[2-[[(4S)-5-hydroxy-4-[(18-hydroxy-18-oxooctadecanoyl)amino]-5-oxopentanoyl]amino]ethoxy]ethoxy]acetyl]amino]ethoxy]ethoxy]acetyl]) … (peptide)
peptide: HSQGTFTSDYSKYLDSKRAQEFVQWLK([AEEA-AEEA-γGlu-C18 diacid])NT-NH2
modifications: N-terminus assumed
SMILES: CC(C)C[C@H](NC(=O)[C@H](Cc1ccc(O)cc1)NC(=O)[C@H](CCCCN)NC(=O)[C@H](CO)NC(=O)[C@H](Cc1ccc(O)cc1)NC(=O)[C@H](CC(=O)O)NC(=O)[C@H](CO)NC(=O)[C@@H](NC(=O)[C@H](Cc1ccccc1)NC(=O)[C@@H](NC(=O)CNC(=O)[C@H](CCC(N)=O)NC(=O)[C@H](CO)NC(=O)[C@@H](N)Cc1c[nH]cn1)[C@@H](C)O)[C@@H](C)O)C(=O)N[C@@H](CC(=O)O)C(=O)N[C@@H](CO)C(=O)N[C@@H](CCCCN)C(=O)N[C@@H](CCCNC(=N)N)C(=O)N[C@@H](C)C(=O)N[C@@H](CCC(N)=O)C(=O)N[C@@H](CCC(=O)O)C(=O)N[C@@H](Cc1ccccc1)C(=O)N[C@H](C(=O)N[C@@H](CCC(N)=O)C(=O)N[C@@H](Cc1c[nH]c2ccccc12)C(=O)N[C@@H](CC(C)C)C(=O)N[C@@H](CCCCNC(=O)COCCOCCNC(=O)COCCOCCNC(=O)CC[C@H](NC(=O)CCCCCCCCCCCCCCCCC(=O)O)C(=O)O)C(=O)N[C@@H](CC(N)=O)C(=O)N[C@H](C(N)=O)[C@@H](C)O)C(C)C
B7: N^ε29 … (peptide)
peptide: HSQGTFTSDYSKYLDSKRAQEFVQWLLNK([AEEA-AEEA-γGlu-C18 diacid])-NH2
modifications: N-terminus assumed
SMILES: CC(C)C[C@H](NC(=O)[C@H](CC(C)C)NC(=O)[C@H](Cc1c[nH]c2ccccc12)NC(=O)[C@H](CCC(N)=O)NC(=O)[C@@H](NC(=O)[C@H](Cc1ccccc1)NC(=O)[C@H](CCC(=O)O)NC(=O)[C@H](CCC(N)=O)NC(=O)[C@H](C)NC(=O)[C@H](CCCNC(=N)N)NC(=O)[C@H](CCCCN)NC(=O)[C@H](CO)NC(=O)[C@H](CC(=O)O)NC(=O)[C@H](CC(C)C)NC(=O)[C@H](Cc1ccc(O)cc1)NC(=O)[C@H](CCCCN)NC(=O)[C@H](CO)NC(=O)[C@H](Cc1ccc(O)cc1)NC(=O)[C@H](CC(=O)O)NC(=O)[C@H](CO)NC(=O)[C@@H](NC(=O)[C@H](Cc1ccccc1)NC(=O)[C@@H](NC(=O)CNC(=O)[C@H](CCC(N)=O)NC(=O)[C@H](CO)NC(=O)[C@@H](N)Cc1c[nH]cn1)[C@@H](C)O)[C@@H](C)O)C(C)C)C(=O)N[C@@H](CC(N)=O)C(=O)N[C@@H](CCCCNC(=O)COCCOCCNC(=O)COCCOCCNC(=O)CC[C@H](NC(=O)CCCCCCCCCCCCCCCCC(=O)O)C(=O)O)C(N)=O

molecular target: glucagon receptor (UniProt P47871 26-477, limits assumed); assay: cell-based or functional assay
Sequence (P47871 26-477 limits assumed): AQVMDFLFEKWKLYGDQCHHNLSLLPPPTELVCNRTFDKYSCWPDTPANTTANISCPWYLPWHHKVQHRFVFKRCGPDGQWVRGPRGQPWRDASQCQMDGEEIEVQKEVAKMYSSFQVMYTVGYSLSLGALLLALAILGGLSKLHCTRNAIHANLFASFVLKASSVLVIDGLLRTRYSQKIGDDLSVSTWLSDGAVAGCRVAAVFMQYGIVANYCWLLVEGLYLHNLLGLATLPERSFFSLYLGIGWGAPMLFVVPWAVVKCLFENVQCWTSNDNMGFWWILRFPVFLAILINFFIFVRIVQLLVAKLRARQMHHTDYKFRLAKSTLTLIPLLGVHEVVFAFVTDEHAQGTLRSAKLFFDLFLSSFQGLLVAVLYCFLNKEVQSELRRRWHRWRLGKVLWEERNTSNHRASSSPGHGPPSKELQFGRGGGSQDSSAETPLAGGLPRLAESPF

Binder | Assay (I) Glucagon [EC50] [nM]
HSQGTFTSDYSKYLDSKRAQEFVK([AEEA-AEEA-γGlu-C18 diacid])WLLNT | 0.022
HSQGTFTSDYSKYLDK([AEEA-AEEA-γGlu-C18 diacid])KRAQEFVQWLLNT | 0.02
B1 | 0.012
B2 | 0.003
HSQGTFTSDYSKYLDSKKAQEFVK([AEEA-AEEA-γGlu-C18 diacid])WLLST | 0.009
B3 | 0.003
HSQGTFTSDYSKYLDSRRAQDFVK([AEEA-AEEA-γGlu-C18 diacid])HLLNT | 0.194
B4 | 0.017
HSQGTFTSDYSKYLDSRRAQDFVK([AEEA-AEEA-γGlu-C18 diacid])[pY]LLNT | 0.171
B5 | 0.007
HSQGTFTSDYSKYLDSRQAQEFVK([AEEA-AEEA-γGlu-C18 diacid])WLLNT | 0.15
HSQGTFTSDYSKYLDSRRAQEFVK([AEEA-AEEA-γGlu-C18 diacid])RLLNT | 0.074
B6 | 0.007
B7 | 0.003
